From patent publication CN117247456A (SANYOU BIO INC, dated 2023)

Key:
重组人PD-L1-mFc = target: T1, 重组人PD-L1-mFc (human, UniProt Q9NZQ7 19-238); assay: ELISA, plate coated with PD-L1-mFc, anti-human IgG Fc-HRP (reference antibody)
T1 construct: also called 人重组蛋白PD-L1-mFc; PD-L1蛋白

重组人PD-L1-His = 重组人PD-L1-His (human, UniProt Q9NZQ7 19-238); assay: SPR, Biacore T200, PD-L1-His as analyte (reference antibody)
[1] = target: T2, 人PD-L1 on huPD-L1-CHO-S细胞 (human, UniProt Q9NZQ7 19-290); assay: flow cytometry on huPD-L1-CHO-S cells (reference antibody)
T2 construct: whole, on cells; also called 细胞表面PD-L1

Measured: binding result

T2 sequence (Q9NZQ7 19-290): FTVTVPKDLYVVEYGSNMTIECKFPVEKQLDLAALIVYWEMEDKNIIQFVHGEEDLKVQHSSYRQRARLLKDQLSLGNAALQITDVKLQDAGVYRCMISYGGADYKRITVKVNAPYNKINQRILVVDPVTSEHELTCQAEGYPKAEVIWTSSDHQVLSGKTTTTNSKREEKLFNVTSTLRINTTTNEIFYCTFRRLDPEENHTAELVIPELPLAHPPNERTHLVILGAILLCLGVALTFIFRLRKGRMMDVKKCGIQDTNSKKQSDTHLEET
Chain of 重组人PD-L1-His (Q9NZQ7 19-238 limits assumed): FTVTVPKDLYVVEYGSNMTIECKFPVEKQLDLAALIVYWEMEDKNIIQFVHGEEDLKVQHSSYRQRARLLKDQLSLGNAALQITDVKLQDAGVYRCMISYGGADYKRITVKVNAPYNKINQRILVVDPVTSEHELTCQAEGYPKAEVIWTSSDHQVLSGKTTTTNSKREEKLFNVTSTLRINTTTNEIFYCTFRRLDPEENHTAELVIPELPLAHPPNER
T1 sequence (Q9NZQ7 19-238 limits assumed): as above

B1: 抗人PD-L1抗体D21-4 (antibody, V domains shown)
VH: EVQLVESGGGLVQPGGSLRLSCAASRTDRNINTMHWYRQAPGKGREWVGTIFIDLNTIVTDSVKGRFTISRDNAKNTLYLQMNTLRAEDTAVYYCAADVSGYGRAWGQGTTVTVSS
notes: also called 亲本抗体D21-4; 亲本PD-L1抗体D21-4; not shown: rest of the 'complete control antibody' (constant part / Fc) is not described
binds: all assays above
